Patent US20170174733A1 (Genentech, published 2017)
Like-named read-outs stand apart in the source and are kept apart here.

Legend:
VEGF109 [1] = biological target: T1, VEGF109 (UniProt P15692 214-315, biotinylated where loaded on streptavidin tips)
T1 sequence: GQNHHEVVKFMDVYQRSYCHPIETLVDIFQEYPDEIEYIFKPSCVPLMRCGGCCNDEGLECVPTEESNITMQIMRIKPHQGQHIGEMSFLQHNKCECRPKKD

human VEGF [2] = biological target: T2, human VEGF (human, UniProt P15692 27-191); assay: cell-based or functional assay
human VEGF [3] = biological target: T2, human VEGF; assay: cell-based or functional assay; remark: listed apart in the source
VEGF109 [4] = biological target: T1, VEGF109; assay: BLI (OctetRED384): biotinylated VEGF109 on tips
VEGF109 [5] = biological target: T1, VEGF109; assay: BLI (OctetRED384): biotinylated VEGF109 on tips, monomeric variant in solution
VEGF109 [6] = biological target: T1, VEGF109; assay: BLI (OctetRED384): biotinylated VEGF109 on SA sensor tips
LRP6 on HEK293S cells = LRP6 on HEK293S cells (human, UniProt O75581 20-1613); assay: cell-based or functional assay
[7] = biological target: T3, LRP6 E1E2 with a C-terminal Avi-tag and His6-tag (human, UniProt O75581 20-630, biotinylated (Avi-tag) where loaded on streptavidin tips; unlabeled where in solution); assay: BLI (OctetRED384), monomeric variant
T3 construct: domain: E1E2; also called LRP6 receptor fragment E1E2; biotinylated LRP6-E1E2; not shown: C-terminal Avi-tag and His6-tag
T3 sequence: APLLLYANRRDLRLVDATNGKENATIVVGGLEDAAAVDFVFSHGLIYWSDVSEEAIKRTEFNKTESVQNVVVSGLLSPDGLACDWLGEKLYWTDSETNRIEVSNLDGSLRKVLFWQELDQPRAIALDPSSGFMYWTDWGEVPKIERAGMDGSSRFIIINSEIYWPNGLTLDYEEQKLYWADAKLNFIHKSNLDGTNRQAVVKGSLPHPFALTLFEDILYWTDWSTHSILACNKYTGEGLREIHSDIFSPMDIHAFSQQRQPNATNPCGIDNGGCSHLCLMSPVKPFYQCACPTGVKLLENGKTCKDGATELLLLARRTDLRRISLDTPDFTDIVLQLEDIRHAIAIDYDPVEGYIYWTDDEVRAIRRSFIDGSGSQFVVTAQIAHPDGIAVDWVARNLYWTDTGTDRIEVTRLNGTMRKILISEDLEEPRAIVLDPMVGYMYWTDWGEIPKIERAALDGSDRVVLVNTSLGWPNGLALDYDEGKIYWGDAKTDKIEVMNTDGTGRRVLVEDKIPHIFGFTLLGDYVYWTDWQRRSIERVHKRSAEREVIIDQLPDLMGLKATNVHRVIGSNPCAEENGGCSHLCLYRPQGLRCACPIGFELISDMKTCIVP

[8] = biological target: T3, LRP6 E1E2 with a C-terminal Avi-tag and …; assay: biolayer interferometry (OctetRED384), fitting view of five traces, LRP6-E1E2
Description: Binding affinities of chagasin variants for the targets LRP6 and VEGF109 were measured using the OctetRED384 (ForteBio). All washes, dilutions and measurements were performed in PBS-based kinetics buffer (ForteBio) with the plate shaking at 1000 rpm. Streptavidin biosensors (SA tips, ForteBio) were equilibrated in kinetics buffer for 5 min and then loaded with either biotinylated LRP6-E1E2 or biotinylated VEGF109 (20 μg/ml) to a density of 2 nm signal difference, followed by a 3 min washing step. […] Dissociation of the chagasin variant-target complex was measured in wells containing kinetics buffer alone for up to 30 min. Sensorgrams with ligand-loaded SA tips going through wells containing only buffer in both association and dissociation measurement were used as reference for background subtraction. Kd, kₐ and kd were determined using the Octet evaluation software v7.0.1.3. using a 1:1 binding model with global fitting. Alternatively, AMC-biosensors (Fortebio) were loaded with StrepMAB-Immo (IBA GmbH) to saturation and subsequently used to capture Strep-tag II containing chagasin variants to saturation. After 5 min of washing in kinetics buffer, binding kinetics to unlabeled LRP6-E1E2 fragment was determined essentially as described above.

[9] = biological target: T3, LRP6 E1E2 with a C-terminal Avi-tag and …; assay: BLI on small-scale ExiProgen protein with C-terminal Avi-tag
human VEGF [10] = biological target: T2, human VEGF; assay: cell-based or functional assay; remark: listed apart in the source
human VEGF [11] = biological target: T2, human VEGF; assay: cell-based or functional assay; remark: listed apart in the source
biotinylated VEGF165 [12] = biological target: T4, biotinylated VEGF165 (UniProt P15692 27-191); assay: competition binding ELISA: blocks biotinylated VEGF165 binding to coated VEGFR1-Fc
T4 construct: range 1-165; also called VEGF1-165

biotinylated VEGF165 [13] = biological target: T4, biotinylated VEGF165; assay: competition binding ELISA: biotinylated VEGF165 premixed with the binder, then on coated VEGFR1-Fc (blocked partner), OD 450 nm

T2 sequence (P15692 other isoform, or with tags, fused parts or gaps limits assumed): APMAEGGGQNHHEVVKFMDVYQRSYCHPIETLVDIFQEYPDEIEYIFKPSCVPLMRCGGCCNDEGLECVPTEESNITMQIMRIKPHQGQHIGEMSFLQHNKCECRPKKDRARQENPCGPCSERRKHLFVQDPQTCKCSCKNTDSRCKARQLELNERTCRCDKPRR
T4 sequence (P15692 other isoform, or with tags, fused parts or gaps limits assumed): as above

B1: monomeric chagasin VEGF variant L4X6-7 (designed binder)
chain: MSHKVTKAHNGATLTVAVGELVEIQLPSNYFREGFAWYFEGGTKESPNESMFTVENKYFPHVQWGWGAGGTEHFHVTVKAAGTHAVNLTYMAPWVGPSRELERFTVYLKAN
VEGF109 [1]
  Kd: 160 nM
Human VEGF [2]
  fold improvement of IC50 over the parental chagasin variant 4: 13 fold
Human VEGF [3]
  Inhibitory Activity (IC50, nM) against hVEGF in cell-based assays: 65 nM
VEGF109 [4]
  fold improvement of Kd over the parental variant 4: 2.5 fold
VEGF109 [5]
  Kd: 150 nM

B2: chagasin VEGF variant 66 (designed binder)
chain: MSHKVTKAHNGATLTVAVGELVEIQLPSNYYYDGFAWYFEGGTKESPNESMFTVENKYFPHYYNLGGRYTGAGGTEHFHVTVKAAGTHAVNLTYMGPWLGPSRVLERFTVYLKAN
notes: also called clone 66; not shown: C-terminal His6-tag and Avi-tag of the ExiProgen small-scale expression
VEGF109 [6]
  binding result: binds

B3: chagasin LRP6 variant H2 (designed binder)
chain: MSHKVTKAHNGATLTVAVGELVEIQLPSNPQTGFAWYFEGGTKESPNESMFTVENKYFPSNKVKGVPGFGAGGTEHFHVTVKAAGTHAVNLTYMGPWTGASQEPERFTVYLKAN
notes: also called clone H2
LRP6 on HEK293S cells
  IC50, inhibition of Wnt1 signaling (luciferase reporter, HEK293S cells transfected by WNT1): 31 nM
[7]
  Kd: 0.4 nM
[8]
  Kd: 0.39 nM

B4: chagasin LRP6 variant S15 (designed binder)
chain: MSHKVTKAHNGATLTVAVGELVEIQLPSNADGFAWYFEGGTKESPNESMFTVENKYFPSNSTKRGAGGTEHFHVTVKAAGTHAVNLTYMRREKGSTLVVERFTVYLKAN
modifications: biotinylated at the Avi-tag (BirA)
notes: not shown: C-terminal His6-tag and Avi-tag (ExiProgen small-scale expression)
[9]
  binding result: binds

B5: GST-fused chagasin VEGF variant 4-66-F6 (designed binder)
chain: MSHKVTKAHNGATLTVAVGELVEIQLPSNYFYDGFAWYFEGGTKESPNESMFTVENKYFPNDPGSRLSGAGGTEHFHVTVKAAGTHAVNLTYMAPWLGPSRVLERFTVYLKAN
notes: also called GST-Variant 4; variant 4 as a GST-fusion protein; not shown: N-terminal His6-GST-tag and TEV cleavage site (pET52b backbone)
Human VEGF [2]
  IC50, inhibition of VEGF-dependent KDR phosphorylation on KDR-expressing CHO cells: 72 nM
Human VEGF [10]
  Inhibitory activity (IC50, nM) against VEGF in cell-based assays: 28 nM
Human VEGF [11]
  Inhibitory activity (IC50, nM) against VEGF in cell-based assays: 73 nM
Biotinylated VEGF165 [12]
  IC50: 13 nM
Biotinylated VEGF165 [13]
  IC50: 14 nM
